This is an account of results in patent US9539225B2, “Anemia of cancer improving/prophylactic agent” (SBI Pharmaceuticals Co., Ltd., priority 2011, dated 2017).

The subject of this data set is person suffering from chronic lymphatic leukemia (cancerous anemia).

Text: The white blood cell count, the red blood cell count, the hemoglobin, and the blood platelet count before and after treatment are shown in Table 3 below.

Take “Rituxan: anticancer drug used to treat chronic lymphatic leukemia”: where the note is “2010 Nov. 22, after one cycle of Rituxan begun Nov. 15, 2010, before ALA, 2010 Jan. 13 value 16.48”, the “White blood cell count” value came to 1560 µL⁻¹. Further, where the note is “human, in vivo”, the “Anemia as side effect, result in words” value is listed as “anemia progressed as a side effect”; the Blood platelet count was 101000 µL⁻¹; the Hemoglobin is 9.20 g/dL; the “Red blood cell count” value was 2.8e+06 µL⁻¹.
